Experimental findings from PMC9371898 are described below.

Holding throughout (assay): SEC
(In general: In gel filtration, larger molecules generally elute earlier.)

Experiment [1] deals with PriRep5 K591A (Staphylococcus aureus (SaPI5, strain USA300)).
Experiment [2] concerns the target Rep1 Triple Mutant (R248A-Y251A-K253A) (Staphylococcus aureus (SaPI1)) (UniProt Q8GNZ1).
The target in experiment [3] is PriRep5-ΔCTD (residues 676-790 removed) (Staphylococcus aureus (SaPI5, strain USA300)).

Regarding PriRep5 K591A (natural protein), the stoichiometry N – broadly, the number of molecules, sites or subunits per partner or assembly – in experiment [1] amounted to 6. In experiment [2], “Rep1 Triple Mutant (R248A-Y251A-K253A) (from UniProt Q8GNZ1 1-66) (natural protein)” returned a stoichiometry N of 6. As for “PriRep5-ΔCTD (residues 676-790 removed) (domain or fragment)”, the stoichiometry N in experiment [3] stood at 6.
